Data as given in article PMC10907721.
Substitutions are numbered along the chain they refer to.

Columns and labels:
Experiment in all cases: EMSA
Conditions in all cases: EMSA: 20 mM Tris-HCl pH 7.5, 25 mM NaCl, 2 mM beta-mercaptoethanol, 10% glycerol; 50 nM nucleosome or DNA; 15 min room temperature; 6% TBE-acrylamide gel, 0.2X …
[1] = target: T1, Hop1 CBR loop 1+3 mutant N362A;H365A;K452A;R458A (Saccharomyces cerevisiae) (UniProt P20050)
T1 sequence: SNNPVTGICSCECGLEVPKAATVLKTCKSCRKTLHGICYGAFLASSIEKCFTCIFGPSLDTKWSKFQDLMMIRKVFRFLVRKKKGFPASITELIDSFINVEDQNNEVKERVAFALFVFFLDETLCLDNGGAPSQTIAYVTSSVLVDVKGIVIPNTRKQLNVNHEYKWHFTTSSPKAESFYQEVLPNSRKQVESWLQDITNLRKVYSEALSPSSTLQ

[2] = target: T2, Hop1 CBR loop 1+2+3 mutant N362A;H365A;R402A;K403A;K404A;K405A;K452A;R458A (Saccharomyces cerevisiae) (UniProt P20050)
T2 sequence: T1 sequence with R81A, K82A, K83A, K84A

[3] = target: T3, Hop1 CBR loop 1+2 mutant N362A;H365A;R402A;K403A;K404A;K405A (Saccharomyces cerevisiae) (UniProt P20050)
T3 sequence: T1 sequence with R81A, K82A, K83A, K84A, A131K, A137R

[4] = target: T4, Hop1 CBR loop 3 mutant K452A;R458A (Saccharomyces cerevisiae) (UniProt P20050)
T4 sequence: T1 sequence with A41N, A44H

[5] = target: T5, Hop1 CBR loop2 mutant R402A;K403A;K404A;K405A (Saccharomyces cerevisiae) (UniProt P20050)
T5 sequence: T1 sequence with A41N, A44H, R81A, K82A, K83A, K84A, A131K, A137R

[6] = target: T6, Hop1 CBR loop2+3 mutant R402A;K403A;K404A;K405A;K452A;R458A (Saccharomyces cerevisiae) (UniProt P20050)
T6 sequence: T1 sequence with A41N, A44H, R81A, K82A, K83A, K84A

[7] = target: T7, Hop1 CBR loop 1 mutant N362A;H365A (Saccharomyces cerevisiae) (UniProt P20050)
T7 sequence: T1 sequence with A131K, A137R

TGGAGAATCCCGGTGCCGAGGCCGCTCAATTGGTCGTAGACAGCTCTAGCACCGCTTAAACGCACGTACGCGCTGTCCCCCGCGTTTTAACCGCCAAGGGGATTACTCCCTAGTCTCCAGGCACGTGTCAGATATATACATCCTGT (double strand) [Widom 601 mononucleosome (human histones)]
Kd [1]: 13 µM
Kd [2]: > 50 µM
Kd [3]: > 50 µM
Kd [4]: 50 µM
Kd [5]: > 50 µM
Kd [6]: > 50 µM
Kd [7]: 2 µM
